# Measured values from patent publication US20230348588A1 (published 2023).
# B1: mouse monoclonal antibody 4N2 (antibody, V domains shown)
# VH: EVKLVESGGGLVKPGGSLKLSCGASGFTFSNYVMSWVRQTPERRLEWVATISGGGRYSYYPDSVKGRFTISRDNAKNNLYLQMSSLRSEDTALYYCGRQDDYDSFPYCGQGTLVTVSV
# VL: DILLTQSPAILSVSLGERVSFSCRASQSIGTSIHWFQLRTNGSPRLLIKYASEPISGIPSRFSGSGSGTDFTLSINSVESEDIADYFCQQSKSWPITFGTGTKLELK
# Target: extracellular domain (ECD) of recombinant human Sortilin with a C-terminal HIS tag (ECD-huSortilin-HIS) (UniProt Q99523 78-755)
# Sequence (Q99523 78-755): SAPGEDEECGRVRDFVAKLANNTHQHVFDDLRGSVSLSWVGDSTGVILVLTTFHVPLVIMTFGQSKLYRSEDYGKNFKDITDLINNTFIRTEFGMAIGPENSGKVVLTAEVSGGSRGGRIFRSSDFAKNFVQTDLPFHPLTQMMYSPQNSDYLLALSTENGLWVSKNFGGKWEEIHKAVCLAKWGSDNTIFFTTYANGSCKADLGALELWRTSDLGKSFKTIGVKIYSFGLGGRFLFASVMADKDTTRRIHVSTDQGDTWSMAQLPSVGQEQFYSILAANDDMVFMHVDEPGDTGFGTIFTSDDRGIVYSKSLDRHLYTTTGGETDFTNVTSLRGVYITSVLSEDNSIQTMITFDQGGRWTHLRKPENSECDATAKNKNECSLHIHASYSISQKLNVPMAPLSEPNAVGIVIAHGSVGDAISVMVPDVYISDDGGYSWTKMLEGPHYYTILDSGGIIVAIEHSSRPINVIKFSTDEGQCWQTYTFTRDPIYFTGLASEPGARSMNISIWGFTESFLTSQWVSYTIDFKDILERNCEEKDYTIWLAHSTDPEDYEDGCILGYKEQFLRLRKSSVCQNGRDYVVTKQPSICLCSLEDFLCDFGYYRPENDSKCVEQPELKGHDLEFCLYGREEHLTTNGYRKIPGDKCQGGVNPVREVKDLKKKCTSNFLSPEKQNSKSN
# Assay: ELISA
binder,measurement,value
B1,EC50,5.8 nM
